In patent US11026972B2, “Methods for generating macrophages with enhanced cancer phagocytosis” (Georgia State University Research Foundation, Inc., priority 2016, dated 2021):

B1: IL-17: recombinant murine cytokine interleukin IL-17 (also known as IL-17A), PeproTech (protein, UniProt Q62386 26-158, looked up)
Interleukin-17A: AAIIPQSSACPNTEAKDFLQNVKVNLKVFNSLGAKVSSRRPSDYLNRSTSPWTLHRNEDPDRYPSVIWEAQCRHQRCVNAEGKLDHHMNSVLIQQEILVLKREPESCPFTFRVEKMLVGVGCTCVASIVRQAA

How the values were obtained:
[1] = system: SIRPα; test: SIRPα immunoprecipitation and WB detection of SIRPα ITIM phosphorylation and SHP-1 association; type: cell-based, mouse; conditions: WT macrophages after LPS or IL-17 treatment
Experimental: FIGS. 4A-4E include data related to our experiments on macrophage phagocytic plasticity. FIG. 4A is a panel of illustrative line graphs showing that IL-10 inhibits macrophage phagocytosis toward “self.” PEMs were treated with LPS and activating cytokines along with various concentrations of IL-10 before testing their ability to phagocytose RBCs. FIG. 4B illustrates the phagocytic plasticity of WT red pulp macrophages. […] Treatments of cultured macrophages with LPS and IL-17 re-elicited their phagocytosis toward RBCs. […] Error bars are ±SEM. ***P<0.001 vs. freshly isolated splenic macrophages. FIG. 4D includes microscopic images of RBC phagocytosis by LPS- and IL-17-treated splenic macrophages. […] WT PEMs treated with LPS or IL-17 were further treated with Cd47^+ RBCs or Cd47-AP (10 min, 37° C.) followed by cell lysis, SIRPα immunoprecipitation, and WB detection of SIRPα phosphorylation (SIRPα^pY) and SHP-1 association. Data presented in each panel represent at least three independent experiments with n≥4, if applicable.
FIGS. 5A-5H include data related to our experiments on the role of Syk in phagocytic activation. […] PEMs were treated with LPS and cytokines in the presence of various inhibitors. After washing, inhibitor-free macrophages were tested for phagocytosis toward RBCs. […] PEMs treated with LPS and activating cytokines, or together with IL-10, were tested for total Syk and phosphorylated Syk (Syk^pY, specific at Y519/520). FIG. 5D describes PMA-induced macrophages phagocytosis toward RBCs. WT and SIRPα^−/− PEMs were treated with PMA (37° C., 30 min) before testing phagocytosis toward RBCs. FIG. 5E is a schematic depiction of PKC-Syk-mediated macrophage phagocytic activation toward self. […] Left: Inhibition of Syk by piceatannol and R406 prevented PMA-induced phagocytic activation. […] Error bars are ±SEM. ***P<0.001 vs. the respective controls. […] LPS-treated WT PEMs were further briefly treated with pervanadate before testing for phagocytosis toward RBCs. Error bars are ±SEM. ***P<0.001 vs. the respective controls. […]

[2] = system: SIRPα^−/− and CD47^−/− mice; test: Acute anemia and splenomegaly in mice deficient of CD47-SIRPα-mediated inhibition under inflammatory conditions; type: in vivo, mouse
Description: FIGS. 1A-1K illustrate our assessment of acute anemia in mice deficient of CD47-SIRPα-mediated inhibition under inflammatory conditions. FIG. 1A includes a schematic drawing of a wild type (WT) and targeted allele of SIRPα (“SIRPα”) and data related to the generation of SIRPα “knock out” (KO) mice. […] Western blot (WB) analysis confirmed the depletion of SIRPα (˜120 kDa) protein in bone marrow leukocytes from SIRPα^−/− mice. FIG. 1B includes a photograph of intestinal tissue and a line graph charting the change in body weight of mice in which colitis had been induced by treatment with 1% or 2% DSS. […] FIGS. 1C and 1D include data related to acute anemia and splenomegaly developed in SIRPα^−/− mice with colitis. WT mice and SIRPα^−/− mice treated with DSS (2% DSS for WT and 1% DSS for SIRPα^−/−) for 10 days were analyzed for the presence of […] (FIG. 1C) and the content of hemoglobin in peripheral blood (FIG. 1D). FIG. 1E includes a panel of photomicrographs in which hematoxylin and eosin (H&E) was used to stain sections of spleens from WT and SIRPα^−/− mice treated with 2% and 1% DSS for 10 days. The bar graph of FIG. 1E illustrates the hemoglobin content in the spleens of WT and SIRPα^−/− mice treated with water or DSS. FIG. 1F is a pair of line graphs showing the time course over which anemia developed in SIRPα^−/− mice when colitis was induced with DSS and the levels of IL-17 in the serum over that same period of time. FIG. 1G is a diagram showing that IL-17 neutralization ameliorates anemia and splenomegaly in SIRPα^−/− mice with colitis. An anti-IL-17 antibody (10 μg, i.v.) was given on days 6 and 8 (arrows) during DSS-induction of colitis. FIG. 1H is a diagram showing that IL-17-containing colitic serum induces acute anemia in SIRPα^−/− mice. Serum samples collected from healthy (Ctl.) and colitic WT mice (2% DSS, 10 d) were administered to healthy SIRPα^−/− mice (i.v., 3×, arrows) with or without an anti-IL-17 antibody. FIGS. 1I and 1J are illustrative graphs showing that IL-17 directly induces acute anemia and splenomegaly in SIRPα^−/− mice and Cd47^−/− mice. Healthy mice were given recombinant IL-17 (10 μg/kg, i.v.) on days 1 and 3 (arrows, FIG. 1J); anemia and splenomegaly were analyzed on day 5 (FIG. 1I) or in a time course manner (FIG. 1J). FIG. 1K includes diagrams showing that acute anemia and splenomegaly in SIRPα^−/− and Cd47^−/− mice under zymosan-peritonitis (3×, every other day), IL-6 administration ([…], i.v.), LPS (0.25 mg/kg, i.p.), and CFA (1×, s.c.) administrations. Error bars are ±SEM **P<0.01, ***P<0.001 vs. control or the beginning time point. Data presented in each panel represent at least three independent experiments with n≥4, if applicable.
Hemoglobin assay: To assay blood hemoglobin, 10 μl of whole blood were obtained from the tail vein followed by lysis in 1 ml distilled water. After centrifugation (13,000 rpm, 30 min), the hemoglobin-containing supernatants were collected and measured for the optical density at the wavelength of 540 nm.
Animal inflammation models: To induce peritonitis, mice (6-8 wk, 20-22 g) were intraperitoneally injected with 0.5 mg zymosan A (Sigma) in 0.5 ml sterile PBS followed by euthanasia at 2, 4, 6 and 8 hours. […] The colitic condition was then assessed by observing diarrhea, measuring body weight loss, increases of inflammatory cytokines, the shortage of the large intestine and intestinal tissue analyses (after euthanasia). […]

Row | Molecule | SIRPα ITIM phosphorylation and SHP-1 association [1] | anemia and splenomegaly ([2]; SIRPα^−/− and CD47^−/− mice, zymosan 3 times every other day, IL-6 2×10 μg/kg i.v., LPS 0.25 mg/kg i.p., CFA s.c.) | acute anemia and splenomegaly ([2]; CD47^−/− mice, IL-17 injection) | acute anemia and splenomegaly ([2]; healthy SIRPα^−/− mice, 2×10 μg/kg, i.v.)
1 | lipopolysaccharide [LPS] | a level of SIRPα ITIM phosphorylation and SHP-1 association even in the absence of extracellular CD47 ligation | induced anemia and splenomegaly | – | –
2 | B1 | a level of SIRPα ITIM phosphorylation and SHP-1 association even in the absence of extracellular CD47 ligation | – | induced acute anemia and splenomegaly | directly induced acute anemia and splenomegaly
